# Measured values reported in patent US9677045B2, “Microorganisms and methods for production of 4-hydroxybutyrate, 1,4-butanediol and related compounds” (priority 2012, dated 2017).
# T1: endogenous alcohol dehydrogenase (yjgB) (Escherichia coli, UniProt P27250)
# T1 sequence (P27250 1-339): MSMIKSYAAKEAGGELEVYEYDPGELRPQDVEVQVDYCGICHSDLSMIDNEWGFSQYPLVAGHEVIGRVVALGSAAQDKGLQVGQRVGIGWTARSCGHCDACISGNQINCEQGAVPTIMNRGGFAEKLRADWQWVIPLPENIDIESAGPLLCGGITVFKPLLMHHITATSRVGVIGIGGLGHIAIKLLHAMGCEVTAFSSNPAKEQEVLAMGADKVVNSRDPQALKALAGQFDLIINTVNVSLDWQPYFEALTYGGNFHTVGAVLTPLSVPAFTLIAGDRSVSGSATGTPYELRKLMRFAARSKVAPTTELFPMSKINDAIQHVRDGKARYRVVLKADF
# T2: phosphotransbutyrylase (PTB) (Clostridium acetobutylicum, UniProt P58255)
# T2 construct: made in house; host or cells: E. coli, plasmid pZA33-0020-0021, cell extract
# T2 sequence (P58255 1-301): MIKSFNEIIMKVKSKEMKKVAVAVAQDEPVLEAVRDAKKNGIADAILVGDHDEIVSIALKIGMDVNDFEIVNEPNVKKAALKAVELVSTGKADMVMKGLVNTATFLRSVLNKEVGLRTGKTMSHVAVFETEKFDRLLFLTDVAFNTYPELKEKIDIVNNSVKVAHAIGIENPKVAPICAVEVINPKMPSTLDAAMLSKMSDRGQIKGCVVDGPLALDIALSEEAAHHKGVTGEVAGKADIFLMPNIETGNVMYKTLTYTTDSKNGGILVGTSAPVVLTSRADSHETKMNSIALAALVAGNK
# B1: yjgB: E. coli alcohol dehydrogenase yjgB, cloned with a streptavidin tag and purified (protein, UniProt P27250 1-339, looked up)
# Aldehyde reductase Ahr: T1 sequence (P27250 1-339)
# modifications: streptavidin tag
# B2: PTB: phosphotransbutyrylase from C. acetobutylicum (gene 0020) (protein, UniProt P58255 1-301, looked up)
# Phosphate butyryltransferase: T2 sequence (P58255 1-301)
# How the values were obtained:
# [1] = system: BCKA in Bacillus subtilis; conditions: decarboxylation; cited from earlier work
# [2] = target: T1, endogenous alcohol dehydrogenase (yjgB); conditions: purified protein, in the presence of NADP+; FIG. 85
# Description: The sample was purified while following the backflux activity.
# A fresh sample of 1427 cells from a 2 L LB preparation grown aerobically overnight was lysed using the microfluidizer at 15,000 psi. The sample was then fractionated via ammonium sulfate.
# The 60% ammonium sulfate pellet was resuspended in a low salt buffer and dialyzed overnight to remove the residual ammonium sulfate. The sample was loaded onto a 5 ml Q-sepharose column (strong anion exchange) and eluted via a slow increasing salt gradient.
# The peak backflux activity from anion exchange was pooled and concentrated to allow for application to a S200 sephacryl size exclusion column.
# The peak with the highest backflux activity from the size exclusion column was pooled and loaded on a phenyl sepharose column (hydrophobic interaction column). The ionic strength of the sample was increased to facilitate binding to the resin.
# [3] = target: T2, phosphotransbutyrylase (PTB); assay: PTB enzyme activity, butyryl-CoA to butyryl-phosphate (DTNB); type: biochemical; conditions: extracts of cells with native ptb/bk operon (0020, 0021) in pZA33
# Description: The enzyme activity of PTB is measured in the direction of butyryl-CoA to butyryl-phosphate as described in Cary et al. J. Bacteriol. 170:4613-4618 (1988). It provides inorganic phosphate for the conversion, and follows the increase in free CoA with the reagent 5,5′-dithiobis-(2-nitrobenzoic acid), or DTNB. DTNB rapidly reacts with thiol groups such as free CoA to release the yellow-colored 2-nitro-5-mercaptobenzoic acid (TNB), which absorbs at 412 nm with a molar extinction coefficient of 14,140 M cm^−1. The assay buffer contained 150 mM potassium phosphate at pH 7.4, 0.1 mM DTNB, and 0.2 mM butyryl-CoA, and the reaction was started by addition of 2 to 50 μL cell extract. The enzyme activity of BK is measured in the direction of butyrate to butyryl-phosphate formation at the expense of ATP. The procedure is similar to the assay for acetate kinase previously described Rose et al., J. Biol. Chem. 211:737-756 (1954). […] This assay links conversion of ATP to ADP by acetate kinase to the linked conversion of ADP and phosphoenolpyruvate (PEP) to ATP and pyruvate by pyruvate kinase, followed by the conversion of pyruvate and NADH to lactate and NAD+ by lactate dehydrogenase. […] The reaction was started by adding 2 to 50 μL cell extract, and the reaction was monitored based on the decrease in absorbance at 340 nm indicating NADH oxidation. […]
molecule,measurement,setting,value
O=C(O)CCC(=O)C(=O)O [2-Oxoglutarate],activity relative to other branched-chain substrates,[1],5%
B1,activity with BDO as a substrate,[2],robust activity was confirmed
B2,specific activity of PTB,[3],approximately 5 U/mg
